B1: Sharpin (Homo sapiens), Q9H0F6 (parent)
chain: MAPPAGGAAAAASDLGSAAVLLAVHAAVRPLGAGPDAEAQLRRLQLSADPERPGRFRLELLGAGPGAVNLEWPLESVSYTIRGPTQHELQPPPGGPGTLSLHFLNPQEAQRWAVLVRGATVEGQNGSKSNSPPALGPEACPVSLPSPPEASTLKGPPPEADLPRSPGNLTEREELAGSLARAIAGGDEKGAAQVAAVLAQHRVALSVQLQEACFPPGPIRLQVTLEDAASAASAASSAHVALQVHPHCTVAALQEQVFSELGFPPAVQRWVIGRCLCVPERSLASYGVRQDGDPAFLYLLSAPREAPATGPSPQHPQKMDGELGRLFPPSLGLPPGPQPAASSLPSPLQPSWSCPSCTFINAPDRPGCEMCSTQRPCTWDPLAAAST

Variants of: B1
Settings: with rnf31_human RNF31, Q96EP0
rnf31_human RNF31, Q96EP0, sequence (Q96EP0 whole entry): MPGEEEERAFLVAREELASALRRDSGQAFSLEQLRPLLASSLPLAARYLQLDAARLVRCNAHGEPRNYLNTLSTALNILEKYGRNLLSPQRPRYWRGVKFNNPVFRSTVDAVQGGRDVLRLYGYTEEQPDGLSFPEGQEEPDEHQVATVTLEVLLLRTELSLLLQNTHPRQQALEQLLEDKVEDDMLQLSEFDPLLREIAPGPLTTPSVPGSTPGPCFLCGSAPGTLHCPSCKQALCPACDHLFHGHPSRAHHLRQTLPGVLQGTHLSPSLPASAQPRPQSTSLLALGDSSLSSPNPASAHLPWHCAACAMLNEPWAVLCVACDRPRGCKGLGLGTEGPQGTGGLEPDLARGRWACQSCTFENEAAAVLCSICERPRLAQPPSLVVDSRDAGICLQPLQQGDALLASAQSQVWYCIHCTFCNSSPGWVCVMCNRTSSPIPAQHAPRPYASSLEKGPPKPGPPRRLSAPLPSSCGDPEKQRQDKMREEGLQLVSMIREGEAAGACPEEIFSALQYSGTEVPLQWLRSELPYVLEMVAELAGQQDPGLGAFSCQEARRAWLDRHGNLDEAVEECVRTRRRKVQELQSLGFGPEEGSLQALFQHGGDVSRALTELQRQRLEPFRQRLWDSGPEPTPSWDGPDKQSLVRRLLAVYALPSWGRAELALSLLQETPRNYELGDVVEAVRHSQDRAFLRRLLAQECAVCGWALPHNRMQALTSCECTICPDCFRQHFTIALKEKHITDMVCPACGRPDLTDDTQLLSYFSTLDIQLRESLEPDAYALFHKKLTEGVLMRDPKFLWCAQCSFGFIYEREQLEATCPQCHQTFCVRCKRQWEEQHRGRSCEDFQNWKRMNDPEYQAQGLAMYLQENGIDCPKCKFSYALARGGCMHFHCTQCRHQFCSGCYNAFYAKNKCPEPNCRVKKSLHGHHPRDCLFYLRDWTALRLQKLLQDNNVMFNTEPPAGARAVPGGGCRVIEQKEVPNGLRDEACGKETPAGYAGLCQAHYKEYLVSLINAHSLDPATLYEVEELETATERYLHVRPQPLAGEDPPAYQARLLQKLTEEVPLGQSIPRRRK

| effect of a mutation on the interaction | Variant |
| --- | --- |
| disrupting interaction | I272A |

Reference: IntAct's records for PubMed 21455181
